# Experimental data: PMC9410881
# What was measured:
# [1] = target: Aca10 from Pseudomonas citronellolis (pcAca10), wild type (Pseudomonas citronellolis); test: SEC-MALS; Superdex 200 Increase 10/300 GL, SEC buffer (20 mM Tris-HCl pH 8.0, 150 mM NaCl), 0.5 ml/min, 20°C; self-association of Aca10
# Aca10 D7K variant = test: SEC-MALS; details: parent: 17.39
# Aca10 E52R mutant = test: SEC-MALS; details: parent: 17.39
# Aca10 G49Y mutant = test: SEC-MALS; details: parent: 17.39
substance,measurement,setting,value
"Aca10 from Pseudomonas citronellolis (pcAca10), wild type (natural protein)",stoichiometry N,[1],2
"Aca10 from Pseudomonas citronellolis (pcAca10), wild type D7K",other: MALS molecular weight (MW),Aca10 D7K variant,17 kDa
"Aca10 from Pseudomonas citronellolis (pcAca10), wild type E52R",other: MALS molecular weight (MW),Aca10 E52R mutant,14.2 kDa
"Aca10 from Pseudomonas citronellolis (pcAca10), wild type G49Y",other: MALS molecular weight (MW),Aca10 G49Y mutant,10.2 kDa
